The target of this assay is FhuA 13R1 (Escherichia coli) (UniProt P06971). Nature of the assay: continuous wave EPR of spin-labelled protein.
UniProt P06971, sequence (P06971 34-747): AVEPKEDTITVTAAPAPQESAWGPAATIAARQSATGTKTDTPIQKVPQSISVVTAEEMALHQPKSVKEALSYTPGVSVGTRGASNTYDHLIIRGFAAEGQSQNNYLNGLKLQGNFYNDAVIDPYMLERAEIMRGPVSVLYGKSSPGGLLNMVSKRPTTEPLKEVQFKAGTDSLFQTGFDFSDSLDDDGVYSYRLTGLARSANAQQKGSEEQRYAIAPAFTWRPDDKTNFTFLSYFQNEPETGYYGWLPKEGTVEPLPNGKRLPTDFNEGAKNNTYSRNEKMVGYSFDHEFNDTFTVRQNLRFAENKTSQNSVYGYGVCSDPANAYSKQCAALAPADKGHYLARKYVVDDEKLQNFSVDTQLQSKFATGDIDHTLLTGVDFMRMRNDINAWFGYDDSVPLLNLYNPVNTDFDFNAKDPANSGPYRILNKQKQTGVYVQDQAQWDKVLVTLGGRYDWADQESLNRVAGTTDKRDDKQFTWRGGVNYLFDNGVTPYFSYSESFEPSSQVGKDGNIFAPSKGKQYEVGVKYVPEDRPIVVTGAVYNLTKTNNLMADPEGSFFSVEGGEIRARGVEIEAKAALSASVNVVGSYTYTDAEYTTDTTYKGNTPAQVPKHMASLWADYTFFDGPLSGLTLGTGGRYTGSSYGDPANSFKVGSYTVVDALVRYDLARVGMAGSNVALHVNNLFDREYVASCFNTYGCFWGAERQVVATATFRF

“TonB (103-239) (from UniProt P02929 103-239) (domain or fragment)” yielded a fraction of FhuA bound to TonB of 95%.

Values taken from paper PMC5811355.
